This passage reports percent trimeric protein and stoichiometry N results from paper PMC12474313.

The target in the assay is rRABV-G-XVIII (rabies virus glycoprotein ectodomain fused to the human collagen XVIII trimerization domain) (rabies virus strain CVS-11 | human). Nature of the assay: SEC.

As usually defined, the stoichiometry N is a count of units in the complex or per binding partner. As for “rRABV-G-XVIII (rabies virus glycoprotein ectodomain fused to the human collagen XVIII trimerization domain)”, the percent trimeric protein was found to be 96.3% and the stoichiometry N was determined as 3.
